Results on 1 molecule are retold here after US20190309079A1 (Regeneron, published 2019).

This experiment addresses T1, LEPR-P316T (signaling-impaired mutant) on HEK293 reporter cells (human, UniProt P48357 22-1165).
T1 sequence: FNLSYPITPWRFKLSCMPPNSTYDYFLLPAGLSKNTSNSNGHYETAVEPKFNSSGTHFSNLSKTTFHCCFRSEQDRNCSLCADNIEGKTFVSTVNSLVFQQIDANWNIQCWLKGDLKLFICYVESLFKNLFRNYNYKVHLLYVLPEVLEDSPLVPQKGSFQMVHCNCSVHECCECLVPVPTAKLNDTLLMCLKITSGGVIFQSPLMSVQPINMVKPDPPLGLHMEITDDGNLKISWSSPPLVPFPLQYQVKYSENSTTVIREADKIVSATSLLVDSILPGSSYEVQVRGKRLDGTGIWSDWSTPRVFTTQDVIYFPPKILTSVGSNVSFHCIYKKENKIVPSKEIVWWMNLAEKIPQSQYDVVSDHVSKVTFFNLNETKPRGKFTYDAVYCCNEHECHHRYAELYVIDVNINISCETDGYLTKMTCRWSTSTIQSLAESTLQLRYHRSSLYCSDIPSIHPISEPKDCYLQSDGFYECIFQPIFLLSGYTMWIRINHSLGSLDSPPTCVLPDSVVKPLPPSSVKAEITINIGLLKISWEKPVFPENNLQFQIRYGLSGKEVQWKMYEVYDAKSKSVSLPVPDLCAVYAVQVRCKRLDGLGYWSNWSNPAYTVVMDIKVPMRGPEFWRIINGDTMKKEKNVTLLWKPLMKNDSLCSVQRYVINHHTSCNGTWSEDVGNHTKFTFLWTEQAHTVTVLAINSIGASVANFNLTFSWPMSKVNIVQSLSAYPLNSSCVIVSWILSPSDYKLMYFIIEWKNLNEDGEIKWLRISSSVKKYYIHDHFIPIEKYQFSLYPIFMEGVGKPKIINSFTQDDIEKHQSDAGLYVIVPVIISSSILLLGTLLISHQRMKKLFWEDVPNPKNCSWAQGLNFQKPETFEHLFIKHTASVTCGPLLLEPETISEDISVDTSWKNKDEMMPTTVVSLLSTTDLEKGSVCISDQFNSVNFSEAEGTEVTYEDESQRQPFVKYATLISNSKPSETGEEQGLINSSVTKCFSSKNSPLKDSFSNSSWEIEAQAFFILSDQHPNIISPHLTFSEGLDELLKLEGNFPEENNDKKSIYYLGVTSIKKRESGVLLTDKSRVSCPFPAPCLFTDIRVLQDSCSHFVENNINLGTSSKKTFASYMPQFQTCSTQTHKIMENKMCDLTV
The experiment in a line: cell-based or functional assay.

B1: H4H16650P2 (antibody, V domains shown)
VH: QVQLVESGGGVVQPGKSLRLSCVASGFTFSSDAMYWVRQAPGKGLEWVAVIYYDGNYQYYEDSVKGRFTISRDNSQNTLDLQMNSLRVDDTAVYFCARLNWDYWYLDLWGRGTLVTVSS
VL: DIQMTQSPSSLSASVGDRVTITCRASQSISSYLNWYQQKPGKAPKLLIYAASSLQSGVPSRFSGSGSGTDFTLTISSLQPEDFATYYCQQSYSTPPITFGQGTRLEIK
For B1, the “EC50 (read off the curve), pSTAT3 Y705/STAT3 densitometry” value was roughly 4e-10 M.
